Experimental data as given in the supplement of paper PMC12764529.
± gives the half width of the 95% confidence interval.

What was measured:
[1] = folding stability dG unfold from trypsin proteolysis; higher = more stable
Procedure, shortened: (§1)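 Designed mini-proteins with no cysteine and under 80 residues were kept only if AlphaFold2 dimer inter-PAE was above 15. In a PA-tagged cDNA display construct, they were digested with trypsin and chymotrypsin and then sequenced. K50 was inferred by Bayesian fitting of counts, and unfolding free energy was derived per protease or combined against a sequence-predicted unfolded-state K50 and a shared folded-state K50.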

[2] = folding stability dG unfold from chymotrypsin proteolysis; higher = more stable
Procedure, shortened: as §1

[3] = folding stability dG unfold (combined trypsin and chymotrypsin); higher = more stable
Procedure, shortened: as §1

SMTITIVVEAPPEEAKEKAEELEKELKEKLDKLREEAKKKGLSEEEIEEELKIKIKVVVVSKEDLEKLKPSA [r9_961_TrROS_Hall]
folding stability dG unfold [1]: 0.989 ± 0.082 kcal/mol
folding stability dG unfold [2]: -0.317 ± 0.11 kcal/mol
folding stability dG unfold [3]: 0.431 ± 0.13 kcal/mol

SMTLTETKVLTTETLSGEEFAKRSGVPVEEIRKSGVKYNVTVTPVEVTYYDPETGKTYKRTSTTVTITPESA [r9_382_JUSTAS]
folding stability dG unfold [1]: 0.354 ± 0.083 kcal/mol
folding stability dG unfold [2]: 0.842 ± 0.11 kcal/mol
folding stability dG unfold [3]: 0.686 ± 0.073 kcal/mol

SMTLTLEDGKLTLTVTETRTTVERDAADPGKWTTRTETRTVTLTLPLEDLEALKKLLEALPPGARVELVPSA [r9_476_TrROS_Hall]
folding stability dG unfold [1]: 3.23 ± 0.09 kcal/mol
folding stability dG unfold [2]: 4.9 ± 0.26 kcal/mol
folding stability dG unfold [3]: 3.91 ± 0.29 kcal/mol

SMTLVLENEDGSLYRIEFDEETGEIYIYNAETGEKYRITFKDGKTEEINAKDLSLEELKALPGLKIEPVPSA [r9_205_TrROS_Hall]
folding stability dG unfold [1]: 2.74 ± 0.061 kcal/mol
folding stability dG unfold [2]: 3.285 ± 0.023 kcal/mol
folding stability dG unfold [3]: 3.13 ± 0.056 kcal/mol

SMTTTTLPDGTTVTTLSDGTVKTVTHYPDSVVTETSPITYKLPDGREFTTKEEAEAYEKETGIPVSPALASA [r9_660_JUSTAS]
folding stability dG unfold [1]: 0.62 ± 0.036 kcal/mol
folding stability dG unfold [2]: 0.255 ± 0.23 kcal/mol
folding stability dG unfold [3]: 0.4 ± 0.16 kcal/mol

SMTVTTDPSSLTFTLPPTYTSVEQAREALEELGFKLPSSVKSITIESVDEGKNLNTITVTFDDPEALKKLSA [r9_820_JUSTAS]
folding stability dG unfold [1]: 0.74 ± 0.03 kcal/mol
folding stability dG unfold [2]: 0.922 ± 0.089 kcal/mol
folding stability dG unfold [3]: 0.913 ± 0.082 kcal/mol

SMTVVTVEKTPDGGVTITVYVPETGEEVEIPVTDPEVQKKATEDPNTTVKVPKEVLESFYPDRITSLSYTSA [r9_390_JUSTAS]
folding stability dG unfold [1]: 0.134 ± 0.098 kcal/mol
folding stability dG unfold [2]: -0.169 ± 0.22 kcal/mol
folding stability dG unfold [3]: 0.0747 ± 0.19 kcal/mol

SMVIEIPDGTPLEEIIKKVKEAKEKGEPMEVVVTVPNDESVIQALKEAGFEVEVEKDEVKNVTLYKVKLPSA [r9_759_JUSTAS]
folding stability dG unfold [1]: 2.7 ± 0.15 kcal/mol
folding stability dG unfold [2]: 2.53 ± 0.025 kcal/mol
folding stability dG unfold [3]: 2.59 ± 0.076 kcal/mol

SMVKTIEIEIVLPPGEWVKLTEEDIKEKIEKELPGWKILSIDITKEERLVPGGTEPLVVIKAKILVEKKESA [r9_1189_JUSTAS]
folding stability dG unfold [1]: 4.26 ± 0.26 kcal/mol
folding stability dG unfold [2]: 3.19 ± 0.14 kcal/mol
folding stability dG unfold [3]: 3.83 ± 0.21 kcal/mol

SMVLARIKVRVRDPVTGEELDVEIDLLAPVEVAEEAAEEFRKLFPGLEVEVDLVEVVPLPPVTPEQLAKESA [r9_421_TrMRF]
folding stability dG unfold [1]: 1.82 ± 0.046 kcal/mol
folding stability dG unfold [2]: 2.823 ± 0.017 kcal/mol
folding stability dG unfold [3]: 2.48 ± 0.083 kcal/mol

SMVTETSEEVKLPSPVRLLIDKKITTFPESGVVEVPTLVTVIPPSGPDTTLPYRVLYTINDDTYTEKRLLSA [r9_154_JUSTAS]
folding stability dG unfold [1]: -0.277 ± 0.085 kcal/mol
folding stability dG unfold [2]: -0.0857 ± 0.12 kcal/mol
folding stability dG unfold [3]: -0.125 ± 0.14 kcal/mol

SMVTVDEKEDPNSDNKIYTVSLPENGEDVITITKAPDGTTTVTLHYPDGSTTTKTFPGNTPVTEAIKLLLSA [r9_346_JUSTAS]
folding stability dG unfold [1]: 2.23 ± 0.12 kcal/mol
folding stability dG unfold [2]: 1.39 ± 0.083 kcal/mol
folding stability dG unfold [3]: 1.74 ± 0.15 kcal/mol

SMVTVERPESTKTIDAPPSATVEFDPATGTLRVYSPDGTATTVPLSPTWSIQPSDNSVTVTAPPASPAAPSA [r9_653_JUSTAS]
folding stability dG unfold [1]: 0.056 ± 0.059 kcal/mol
folding stability dG unfold [2]: 0.669 ± 0.1 kcal/mol
folding stability dG unfold [3]: 0.421 ± 0.066 kcal/mol

SMVVLPVRYPDLSPEEARAAVEALAAEIEAAVGAEVRVEVEVERAPDGTPVRVLVTATVVIRTAADALLLSA [r9_21_JUSTAS]
folding stability dG unfold [1]: 0.946 ± 0.061 kcal/mol
folding stability dG unfold [2]: 1.16 ± 0.068 kcal/mol
folding stability dG unfold [3]: 1.09 ± 0.12 kcal/mol

SMYKLSVYRNGQPVPEEEALERVKRIEEELGREVDPEELARLLAAEPDTVVTVTKYAEPGKPIGTLTYTRSA [r9_1045_JUSTAS]
folding stability dG unfold [1]: 1.32 ± 0.08 kcal/mol
folding stability dG unfold [2]: 1.4 ± 0.17 kcal/mol
folding stability dG unfold [3]: 1.39 ± 0.16 kcal/mol

SMYVIETSANKTYTVNVPPDGLVTITYPDGSTETRKFTSEEDLEAFAEELSKKYPDAPATIKPVPLEELGSA [r9_1206_JUSTAS]
folding stability dG unfold [1]: 1.21 ± 0.11 kcal/mol
folding stability dG unfold [2]: 0.473 ± 0.26 kcal/mol
folding stability dG unfold [3]: 0.959 ± 0.25 kcal/mol

SNELAKEIADELKKQGYEVKDVEVQYSPDDGMVEIEARIRHPDDGRQYRIDIHVNPDDGKITQVKIEPRPSA [r9_814_TrROS]
folding stability dG unfold [1]: 0.857 ± 0.028 kcal/mol
folding stability dG unfold [2]: 0.644 ± 0.17 kcal/mol
folding stability dG unfold [3]: 0.825 ± 0.17 kcal/mol

SNPISAVVPSPGGRYVLVVEYKDGSVEVYEFEGLSTAEEAKERALALLKESTEGEPREITRVVVLPAPPGSA [r9_1135_TrMRF]
folding stability dG unfold [1]: 4.3 ± 0.17 kcal/mol
folding stability dG unfold [2]: 4.3 ± 0.051 kcal/mol
folding stability dG unfold [3]: 4.33 ± 0.11 kcal/mol

SNPWVEITIYFPMRPDPNGKMQPLSPSELLEELLKQGFPIKDIDIDEVTDNYIPITIRIDAKDGKIEIEWSA [r9_225_TrROS]
folding stability dG unfold [1]: 2.12 ± 0.21 kcal/mol
folding stability dG unfold [2]: 3.18 ± 0.13 kcal/mol
folding stability dG unfold [3]: 2.85 ± 0.19 kcal/mol

SNVHIHVEPDPDGRVKITLMMPPDNPDEFAEEIAENLGYPVKITDIEPFPFKKNGKPREYYMIEIEIRLPSA [r9_431_TrROS]
folding stability dG unfold [1]: 1.15 ± 0.13 kcal/mol
folding stability dG unfold [2]: 2.56 ± 0.2 kcal/mol
folding stability dG unfold [3]: 2.17 ± 0.25 kcal/mol

SNYLMIRIKEIDPNNPNKIKIEDIHPMPDNGNVQINIEHPGQEIYVMFNSADDAEEFINTLLKNYGLKPESA [r9_258_TrROS]
folding stability dG unfold [1]: 0.925 ± 0.053 kcal/mol
folding stability dG unfold [2]: 1.6 ± 0.11 kcal/mol
folding stability dG unfold [3]: 1.33 ± 0.098 kcal/mol

SPEIKIELVYDEETEELYLEIEIRFPESEEEAIEALKKLLEELGFEVVEIEEIEVEEDGTVRIRVRIRKKSA [r9_876_TrROS_Hall]
folding stability dG unfold [1]: 4.87 ± 0.31 kcal/mol
folding stability dG unfold [2]: 4.47 ± 0.7 kcal/mol
folding stability dG unfold [3]: > 6 kcal/mol

SPFIMIRIDIERKNGKEVEMMFPVPANNIKNNLRDHLGPGYKVKITDIEPIDPEQFPPGQMIKIRYRVKPSA [r9_803_TrROS]
folding stability dG unfold [1]: 1.73 ± 0.048 kcal/mol
folding stability dG unfold [2]: 1.71 ± 0.13 kcal/mol
folding stability dG unfold [3]: 1.79 ± 0.18 kcal/mol

SPGMEPIREWELKLPDPDGEDKDLEVEMYRMPEGNYYVDISIPNGKKIPFPMPPDEPITPDDIRNFIKKFSA [r9_616_TrROS]
folding stability dG unfold [1]: 0.133 ± 0.26 kcal/mol
folding stability dG unfold [2]: 0.613 ± 0.23 kcal/mol
folding stability dG unfold [3]: 0.394 ± 0.28 kcal/mol

SPGVTVEISTSTLPNGTRVTTLTTTTFDPQTGTTSTTTTVTVSPAPSSASPLRRELVTRPDGTLVPAALLSA [r9_898_JUSTAS]
folding stability dG unfold [1]: -0.234 ± 0.13 kcal/mol
folding stability dG unfold [2]: 0.235 ± 0.16 kcal/mol
folding stability dG unfold [3]: 0.168 ± 0.076 kcal/mol

SPGWYKVDIEIPMKEIQEEFGDPDKPITADRIKERVKKIAETIGFEVRDVEIEMDPNGWVRVTVTIPVKNSA [r9_52_TrROS]
folding stability dG unfold [1]: 3.77 ± 0.3 kcal/mol
folding stability dG unfold [2]: 3.89 ± 0.11 kcal/mol
folding stability dG unfold [3]: 3.64 ± 0.19 kcal/mol

SPIKLPIVFPNLPKEEAKEAVEALAKELEEKYGFKIEVEVEELRAPDGKLVAVVAIATIEKFGEEDKLLFSA [r9_21_TrMRF]
folding stability dG unfold [1]: 1.3 ± 0.08 kcal/mol
folding stability dG unfold [2]: 1.12 ± 0.14 kcal/mol
folding stability dG unfold [3]: 1.2 ± 0.18 kcal/mol

SPIRIRIWNPKNNVPIDEIDIQPNEDGNYGIKIKFWMPGKQHEHTIPIPPGETADEFINDHGIRSIEIEPSA [r9_492_TrROS]
folding stability dG unfold [1]: 0.13 ± 0.085 kcal/mol
folding stability dG unfold [2]: 1.01 ± 0.11 kcal/mol
folding stability dG unfold [3]: 0.7 ± 0.086 kcal/mol

SPKELEFKHPDNGMEVKIRLDPNQGRIEIEVRPPNGPPVKMDMEVTDDRIKIDIYYPGGRPMMQLEFPLPSA [r9_665_TrROS]
folding stability dG unfold [1]: 2.92 ± 0.15 kcal/mol
folding stability dG unfold [2]: 2.79 ± 0.074 kcal/mol
folding stability dG unfold [3]: 2.88 ± 0.085 kcal/mol

SPKIKIVSVSRTAGGALVALLELEDRPITLYRPLALPYILASAEIPGTNEVKTILAPSSISPEEIAKLLGSA [r9_522_TrMRF]
folding stability dG unfold [1]: 1.59 ± 0.037 kcal/mol
folding stability dG unfold [2]: 1.75 ± 0.09 kcal/mol
folding stability dG unfold [3]: 1.75 ± 0.089 kcal/mol

SPKVTLTLEGKVITFPAPLAEKLLGELQRKGYKVKILSVEPDPETDEIYLVMEVEPLKPPPLPPPNPLLESA [r9_448_TrMRF]
folding stability dG unfold [1]: 1.16 ± 0.14 kcal/mol
folding stability dG unfold [2]: 2.28 ± 0.062 kcal/mol
folding stability dG unfold [3]: 2.05 ± 0.35 kcal/mol
